According to patent EP4692351A1, “ANTI-CD25 ANTIBODY AND ANTI-CD25 ANTIBODY-DRUG CONJUGATE” (priority 2023, dated 2024):
Where a chain is given by its changes, count along the chain named.

Experiments:
human CD25 [1] = target: T1, human CD25 (human, UniProt P01589 22-272); experiment: cell-based or functional assay
T1 construct: Expressed on transiently transfected CHO-K1 cells in the Cell-ELISA; Endogenous on human T cells, PBMC, Karpas-299 and EoL-1 in the functional assays; also called hCD25; IL-2 receptor alpha chain
T1 sequence: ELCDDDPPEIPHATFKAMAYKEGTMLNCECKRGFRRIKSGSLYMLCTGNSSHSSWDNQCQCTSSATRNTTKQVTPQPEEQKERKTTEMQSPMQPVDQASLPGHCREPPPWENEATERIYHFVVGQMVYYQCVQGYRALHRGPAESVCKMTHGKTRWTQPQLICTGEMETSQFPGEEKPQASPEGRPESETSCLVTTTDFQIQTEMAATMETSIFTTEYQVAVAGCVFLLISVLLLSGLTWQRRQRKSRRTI

mouse CD25 [2] = target: T2, mouse CD25 (mouse, UniProt P01590 22-268); experiment: cell-based or functional assay
T2 construct: Expressed on transiently transfected CHO-K1 cells in the Cell-ELISA; Endogenous on CTLL-2 cells and mouse pan T cells in the functional assays; also called mCD25; pCMV3-mCD25 (expression vector)
T2 sequence: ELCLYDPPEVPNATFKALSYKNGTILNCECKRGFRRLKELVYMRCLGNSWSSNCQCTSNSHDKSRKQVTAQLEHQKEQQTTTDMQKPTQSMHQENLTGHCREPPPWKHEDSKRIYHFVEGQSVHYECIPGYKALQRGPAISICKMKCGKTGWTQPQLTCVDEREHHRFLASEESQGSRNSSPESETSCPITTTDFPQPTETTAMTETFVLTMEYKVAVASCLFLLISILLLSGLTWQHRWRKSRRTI

human CD25 [3] = target: T1, human CD25; experiment: Cell-ELISA on transfected CHO-K1 cells, anti-rat IgG-HRP, A450
cynomolgus monkey CD25 [4] = target: T3, cynomolgus monkey CD25 (cynomolgus monkey, UniProt Q5MNY4 22-272 (rhesus entry)); experiment: as above
T3 construct: Expressed on transiently transfected CHO-K1 cells; also called cCD25; pCI-cCD25 (expression vector)
T3 chain: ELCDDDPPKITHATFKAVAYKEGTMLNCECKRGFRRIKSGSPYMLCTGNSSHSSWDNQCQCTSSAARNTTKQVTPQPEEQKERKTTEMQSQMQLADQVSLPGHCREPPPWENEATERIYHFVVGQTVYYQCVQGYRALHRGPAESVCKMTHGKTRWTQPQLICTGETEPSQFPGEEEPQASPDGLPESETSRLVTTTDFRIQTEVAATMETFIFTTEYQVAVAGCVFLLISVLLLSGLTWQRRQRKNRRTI

human CD25 [5] = target: T1, human CD25; experiment: Cell-ELISA on transfected CHO-K1 cells, anti-human IgG-HRP, A450
cynomolgus monkey CD25 [6] = target: T3, cynomolgus monkey CD25; experiment: as above
mouse CD25 [7] = target: T2, mouse CD25; experiment: as above
cynomolgus monkey CD25 [8] = target: T3, cynomolgus monkey CD25; experiment: Cell-ELISA on transfected CHO-K1 cells, anti-human IgG-HRP, A450; 20 to 0.001 µg/mL
[9] = target: T4, CD25 antigen used as analyte in the Biacore measurement (Homo sapiens (Human), UniProt P01589 22-213, limits assumed); experiment: SPR, Biacore T200, antibody captured on anti-human IgG (Fc) on CM5, antigen as analyte, 1:1 binding model
T4 construct: also called the antigen
T4 sequence: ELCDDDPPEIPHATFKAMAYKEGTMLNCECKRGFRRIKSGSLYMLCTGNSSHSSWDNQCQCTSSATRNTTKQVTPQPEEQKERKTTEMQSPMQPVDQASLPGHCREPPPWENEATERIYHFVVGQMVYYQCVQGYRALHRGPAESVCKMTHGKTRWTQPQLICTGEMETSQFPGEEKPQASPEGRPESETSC

mouse CD25 [10] = target: T2, mouse CD25; experiment: Cell-ELISA on transfected CHO-K1 cells, anti-rat IgG-HRP, A450
cynomolgus monkey CD25 [11] = target: T3, cynomolgus monkey CD25; experiment: Cell-ELISA on transfected CHO-K1 cells, anti-rat IgG-HRP, A450; 0.02 to 10 µg/mL
cynomolgus monkey CD25 [12] = target: T3, cynomolgus monkey CD25; experiment: Cell-ELISA on transfected CHO-K1 cells, anti-human IgG-HRP, A450; 80 to 0.001 µg/mL

Work on 7G7B6 (antibody) yielded an amount of pSTAT5 in human PBMC with IL-2 (AlphaLISA), % of rat IgG2a control group; antibody 20 µg/mL (human CD25 [1]) of 103%.

Work on PC61_hIgG1LALA (antibody) yielded an amount of pSTAT5 in mouse CTLL-2 cells with IL-2 (AlphaLISA), % of rat IgG2a control group; antibody solution 20 µg/mL (mouse CD25 [2]) of 48%.

“Purified NA/LE Rat Anti-Mouse CD25 (PC61 antibody)” showed a cell survival rate of mouse pan T cells with Fab-ZAP rat (saporin), % of control antibody; 60 ng/mL (mouse CD25 [2]) of 59%, a cell survival rate of mouse pan T cells with Fab-ZAP rat (saporin), % of control antibody; 300 ng/mL (mouse CD25 [2]) of 39% and a cell survival rate of mouse pan T cells with Fab-ZAP rat (saporin), % of control antibody; 1500 ng/mL (mouse CD25 [2]) of 31%. For the same molecule, the cell survival rate of mouse pan T cells with Fab-ZAP rat (saporin), % of control antibody; 7500 ng/mL (mouse CD25 [2]) was 29%.

Molecule basiliximab (antibody) has an amount of pSTAT5 in human PBMC with IL-2 (AlphaLISA), % of hIgG1 control group (human CD25 [1]) of 0.01%, an amount of pSTAT5 in human PBMC with IL-2 (AlphaLISA), % of human IgG1 control group (human CD25 [1]) of 1.2% and an amount of pSTAT5 in human PBMC with IL-2 (AlphaLISA), % of rat IgG2a control group; antibody 20 µg/mL (human CD25 [1]) of 1%.

B1: MAb2 antibody (antibody, V domains shown)
VH: QVKLLQSGAALEKPGASVKMSCKASGYTFTDYWVIWVKQSHGKSLEWIGEIYPNSGATNFNAKFKGKATLTVDKSTSTAYMELSRLTSEDSAIYYCTTYDFDYWGQGVMVTVSS
VL: DVVLTQTPPTLSATIGQSVSISCRSSQSLSHTNGNTYLYWLLQRPGQPPQLLIYFVSRLESGVPNRFSGSGSGTDFTLKISGVEAEDLGLYYCVQSTHVPNTFGAGTKLELKR
notes: Rat monoclonal anti-mouse CD25 antibody from a hybridoma
B1: no binding (tested: up to 10 µg/mL) (human CD25 [3]); no binding (tested: up to 10 µg/mL) (cynomolgus monkey CD25 [4]).

B2: cMAb2_hIgG1LALA antibody (antibody, V domains shown)
VH: B1 VH
VL: B1 VL
notes: 21-239 is used here; also called human IgG1LALA chimeric MAb2
B2: no binding (tested: 80 to 0.001 µg/mL) (human CD25 [5]); no binding (tested: 80 to 0.001 µg/mL) (cynomolgus monkey CD25 [6]).

B3: hMAb1A antibody (antibody, human IgG1, kappa, V domains shown)
VH: EVQLVESGGGLVQPGGSLRLSCAASGFTFNNYYMVWVRQAPGKGLEWVAYISTGGGTTYYRESVKGRFTISRDNSKSTLYLQMNSLRAEDTAVYYCTTSVYFSDGSSHYDGEWFAYWGQGTLVTVSS
VL: DIVMTQSPDSLAVSLGERATINCKASESVSTRMHWYQQKPGQPPKLLIYKASNLASGVPARFSGSGSGTDFTLTISSLQAEDVAVYYCQQSWNGWAFGQGTKVEIKR
notes: Humanized MAb1, human IgG1 / kappa; also called humanized antibody hMAb1A; hMAb1 (in places)
For B3, the binding result (mouse CD25 [7]) was “no binding (tested: 20 to 0.001 µg/mL)”, the binding result (cynomolgus monkey CD25 [8]) was “binds” and the Kd [9] was 2.9 nM.

B4: hMAb1B antibody (antibody, human IgG1, kappa, V domains shown)
VH: B3 VH with R61A, E62D
VL: EIVLTQSPGTLSLSPGERATLSCKASESVSTRMHWYQQKPGQAPRLLIYKASNLASGVPARFSGSGSGTDFTLTISRLEPEDFAVYFCQQSWNGWAFGQGTKVEIKR
notes: Humanized MAb1, human IgG1 / kappa; also called humanized antibody hMAb1B
In the case of B4, the binding result (cynomolgus monkey CD25 [8]) is reported as “binds” and the Kd [9] is reported as 5.7 nM.

B5: MAb1 antibody (antibody, V domains shown)
VH: B3 VH with G16R, R19K, G42T, S75A, N84D, A88S, V93T
VL: DTVLTQSPALAVSPGERVTISCKASESVSTRMHWYQQKPGQQPKLLIYKASNLASGVPARFSGSGSGTDFTLTIDPVEADDTATYFCQQSWNGWAFGGGTKLELKR
notes: Rat monoclonal antibody from a hybridoma
B5: no binding (tested: up to 10 µg/mL) (mouse CD25 [10]); binds (cynomolgus monkey CD25 [11]).

B6: cMAb1_hIgG1LALA antibody (antibody, V domains shown)
VH: B3 VH with G16R, R19K, G42T, S75A, N84D, A88S, V93T
VL: B5 VL
notes: Chimeric: rat MAb1 variable regions, human IgG1 LALA heavy constant region, human kappa constant region; also called human IgG1LALA chimeric MAb1
B6: no binding (tested: 80 to 0.001 µg/mL) (mouse CD25 [7]); binds (cynomolgus monkey CD25 [12]).
